Experiment: soluble on expression in E. coli; label from the status in PepcDB or PDB records
For “MSLTREAYHRLTPLPHPGGRLFIKPGARGYRDPVHDLLQKTVEPFGERALDLNPGVGWGSLPLEGRMAVERLETSRAAFRCLTASGLQARLALPWEAAAGAYDLVVLALPAGRGTAYVQASLVAAARALRMGGRLYLAGDKNKGFERYFKEARALLGYGVVVRREGPYRVALLEKEKEAPPLPSLWRAFSARILGAEYTFHHLPGVFSAGKVDPASLLLLEALQERLGPEGVRGRQVLDLGAGYGALTLPLARMGAEVVGVEDDLASVLSLQKGLEANALKAQALHSDVDEALTEEARFDIIVTNPPFHVGGAVILDVAQAFVNVAAARLRPGGVFFLVSNPFLKYEPLLEEKFGAFQTLKVAEYKVLFAEKRGRHHHHHH”, the “soluble on expression in E. coli” value was “soluble”.
For “MLNEFDQYLHERYLSGKARKDRWYWNNSIQRGRSTAVRENWQWKPAVAYCRYADDFVLIVKGTKAQAEAIREECRGVLEGSLKLRLNMDKTKITHVNDGFIFLGHRIIRKRSRYGEMRVVSTIPQEKARNFAASLTALLSGNYSESKVDMAEQLNRKLKGWAMFYQFVDFKAKVFSYIDRVVFWKLAHWLARKYRTGIASLMRWWCKSPKPGQSKTWVLFGKTNHGKLSGEILYRLVGQGKKLFRWRLPEGNPYLRTETRNTYTSRFTEVAMAFASI”, the “soluble on expression in E. coli” value was “not soluble”.
In the case of “MGHHHHHHSHIEETTMTTQTPAPIQAPSAILPLPGQSVERLCVDPRHRQGPVNLLSDPEQGVEVTGQYEREKAGFSWIEVTFKNPLVWVHASPEHVVVTRNRRSSAYKWKETLFSVMPGLKMTMDKTGLLLLSDPDKVTIGLLFWDGRGEGLRLLLRDTDRFSSHVGGTLGQFYQEVLWGSPAASD”, the “soluble on expression in E. coli” value is reported as “not soluble”.
For “MFTGIINHCGEIRSMEALPDHTVLSIDTQFSDLQLGESIAIDGICVTVTQKKLGSFSCDLSPETLACTKARDYKIGSRINLERALRLTDRLGGHFVSGHVDQTAILESQKKHAEFIQMDFKNSSEERWNYLIPKGSVAVNGVSLTVNSVAGDYFSVMLIPHTLEHTNLNDLKEGQIVNIEFDLITKIIVQKTREALSHAKTI”, the “soluble on expression in E. coli” value was “soluble”.
In the case of “MTQRLHRDRHDRGVRGPLFSSALPRYCSRRQRFDATVLEAYAPLQQRYAAQLTHLDIAVDTVPRMRLGFDPALVPDEVVADGPVPLGRVIPAGVDSSGHPTRARLVLFRMAIEQRVVSAQERRELVTTVLTALVANYLNISPTDIDPNFQW”, the “soluble on expression in E. coli” value is reported as “not soluble”.
In the case of “MSLTNQVTYLFFHGMKQISEHLFTTEEQAIIARSKAEGSYMKAPNGQATNLNKKQWAQVRTRAFREWFGDWENNPDEASKVRDANGEPLVVYHGTPISRDQAADRSKFRIADDWEIQTINAPFHTFRGGAYNGLIFTSLTEEKARSIGETRSMSIPDSEDGREQWTTDSYVYDLFVNARQPFDVKNPNAVKDILDALEGQLTAYDFYLGMEVPVSRKEAEKILEGGNSWRVVETPSMQEIIRSRGYDAIHALDEGVQYMAVFAPNQLKASGKYLYSERNTGVFSPGNNDIRFREVHHGVPASFTGYRSMKTETVRNDNIPAVLAALREKLEDTEQEWQDRILDYIAENYPTQTTVSAQTRSPEGLKEREAMKEGHHHHHH”, the “soluble on expression in E. coli” value is reported as “soluble”.
With “MSGIWGNNLKVSIFGESHGNAIGINIDGLPSGIELDLDKIDKEMKRRAPGKNSISTSRNESDIPEILSGYFNGRTTGTPLCAIIRNSDTRSKDYGELKNLMRPGHADFTGNVRYSGFNDYRGGGHFSGRITAPLVFCGAICKQILSQKGIEIGAHIKKIKNIEDMSFDYVNISKQQLSNLQTLELPLLDLSKEEAMKNTIIDAKNQGDSVGGIIECAVVGINVGLGNPFFDSVESTLSHLLFSVPAVKGVEFGLGFELADMYGSQSNDEMYYEGNQVKSKTNNNGGIIGGITTGMPIIFKVAIKPTPSISRQQNTVNIKDKKDDILYIKGRHDPCIVQRAIPVIEAVTAIGIFDLMKGR” the “soluble on expression in E. coli” value was “not soluble”.

From the DeepSol protein solubility set
